From patent publication US12570711B2, “Platforms for co-stimulation, novel car designs and other enhancements for adoptive cellular therapy” (Angeles Therapeutics, Inc., priority 2017, dated 2026)

T1: human MPL (Homo sapiens, UniProt P40238)
T1 construct: endogenous in cells; host or cells: HEL-92.1.7 (HEL) cells
T1 sequence (P40238 26-635): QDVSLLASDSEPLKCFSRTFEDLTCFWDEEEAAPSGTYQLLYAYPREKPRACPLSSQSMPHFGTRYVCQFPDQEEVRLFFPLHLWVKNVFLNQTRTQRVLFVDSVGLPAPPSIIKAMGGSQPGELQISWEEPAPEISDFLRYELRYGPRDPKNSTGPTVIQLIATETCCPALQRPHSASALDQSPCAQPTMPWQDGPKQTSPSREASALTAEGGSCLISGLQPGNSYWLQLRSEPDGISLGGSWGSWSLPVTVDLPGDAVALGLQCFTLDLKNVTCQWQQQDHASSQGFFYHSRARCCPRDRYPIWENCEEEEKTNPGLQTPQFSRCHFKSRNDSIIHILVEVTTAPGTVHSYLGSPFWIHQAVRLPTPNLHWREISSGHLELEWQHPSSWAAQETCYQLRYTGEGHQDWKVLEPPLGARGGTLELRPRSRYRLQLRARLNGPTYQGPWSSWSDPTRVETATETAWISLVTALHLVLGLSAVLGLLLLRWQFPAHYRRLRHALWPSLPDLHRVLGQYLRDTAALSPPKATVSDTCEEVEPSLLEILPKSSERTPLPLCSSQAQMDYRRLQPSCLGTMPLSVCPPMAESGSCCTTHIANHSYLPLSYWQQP


Tests used:
RAJI-Luc cells = assay: NSG mice xenografted with RAJI-Luc cells, CD19-CAR T cells with FKBP-fusion modules, with or without AP20187; type: in vivo, mouse; conditions: AP20187 40 μg every day for 10 days intraperitoneal
Description: T cells expressing the CAR and these accessory modules are tested using in vitro assays in the absence and presence of the dimerizer AP20187 (100 nM). […] Half the mice in each group (n =6) are administered 40 μg of AP20187 every day for 10 days by intraperitoneal injection as described previously (Chinnery et al, J Immunol 2009; 182:2738-2744).

human MPL [1] = molecular target: T1, human MPL; assay: Jurkat-NFAT-EGFP (J-N-G) reporter: EGFP induction upon co-culture with HEL cells; type: cell-based; conditions: 4 h
Text: Jurkat cell line (clone E6-1) engineered with a NFAT-dependent EGFP (or GFP) reporter gene was a gift from Dr. Arthur Weiss at University of California San Francisco and have been described to study CAR-signaling ((Wu, C Y et al., Science 350:293-302, 2015). Jurkat cells were maintained in RPMI-1640 medium supplemented with 10% FBS, penicillin and streptomycin.
The murine monoclonal antibody 161 targets human MPL (Thrombopoietin receptor o TPO-R). To generate a CAR targeting MPL but with reduced immunogenicity, sequence of the scFV fragment comprising the antigen binding domain of the murine 161 antibody was humanized. […] Jurkat-NFAT-EGFP (J-N-G) cells were stably transduced with the lentivirus encoding the humanized MPL-hu-161-2 CAR construct. The parental and CAR-expressing Jurkats were subsequently cocultured with HEL cells and induction of EGFP expression monitored by FACS analysis after 4 h.
The murine monoclonals 175 and 111 also bind human MPL. […] The experiment is repeated as in the preceding example.
The sequence of these TFP CAR constructs is shown in SEQ ID NO: 3526 to 3533. […]
Several Ab-TCR are constructed targeting MPL based on murine 161 scFV as the antigen binding domain. […] T cells expressing MPL Ab-TCRs are shown to induce lysis of HEL-GLuc cells as measured by increase in GLuc activity. […]

human MPL [2] = molecular target: T1, human MPL; assay: NFAT-driven GFP expression and IL2 production of parental and TCR-deficient J-N-G cells exposed to HEL.92.1.7 cells; type: cell-based; conditions: MPL-specific TFP-expressing J-N-G cells with the corresponding TCR chain knocked out; HEL.92.1.7 co-culture
Text: Jurkat-NFAT-GFP (J-N-G) cells (T cell lymphoma) are infected with lentiviral vectors expressing gRNAs targeting TCRα and TCRβ1/β2 constant chains and coexpressing Streptococcus Pyogenes Cas9. The exemplary gRNA target sequences for TCRα chains are given in SEQ ID NO: 7754 and 7755. The exemplary gRNA target sequences for TCRβ1/β2 chains are given in SEQ ID NO: 7756-7758. In an alternative embodiment, the TCRα and TCRβ1/β2 constant chain loci are targeting using gRNA and TALONs as described in Knipping F et al, Molecular Therapy: Methods & Clinical Development, Vol 4, 2017. J-N-G cells lacking the expression of TCRα or TCRβ1/β2 chains are purified by cell sorting using antibodies directed against TCR/CD3 complex. […] Expression of TFPs in the cells is determined by immunostaining with Protein L staining and by staining with MPL-ECD-GGSG-NLuc-AcVS fusion protein (SEQ ID NO: 4923). J-N-G parental cells show robust TFP expression on cell surface while J-N-G cells lacking TCRα or TCRβ1/β2 chains show poor to absent TFP expression. The different populations of J-N-G cells are exposed to HEL.92.1.7 target cells for 24 hours and examined for increase in NFAT-promoter driven GFP expression and IL2 production. J-N-G parental cells expressing MPL-specific TFPs show marked increase in GFP fluorescence and IL2 secretion upon co-culture with HEL.92.1.7 cells. […]

Molecule	TFP surface expression, GFP expression and IL2 secretion after expression of the constant chain (human MPL [2])	further results
CC[C@H](C(=O)N1CCCC[C@H]1C(=O)O[C@H](CCc1ccc(OC)c(OC)c1)c1cccc(OCC(=O)NCC(CNC(=O)COc2cccc([C@@H](CCc3ccc(OC)c(OC)c3)OC(=O)[C@@H]3CCCCN3C(=O)[C@@H](CC)c3cc(OC)c(OC)c(OC)c3)c2)CN(C)C)c1)c1cc(OC)c(OC)c(OC)c1 [AP20187]	–	expansion of CAR-T cells in vivo (RAJI-Luc cells): promote the expansion of CAR-T cells
MPL-hu-161-2: 2nd generation CAR (41BB, CD3z) with humanized 161 scFv hu-161-2 targeting human MPL (protein, Synthetic Polynucleotide encoding a CAR with optional accessory module(s)) MALPVTALLLPLALLLHAARPDVVMTQSPSSLSASVGDRVTITCMASEDIYIRLAWYQQKPGNAPKLLIYAATSLETGVPSRFSGSGSGTDFTLTISSLQPEDFATYYCQQYWSSPWTFGGGTKVEIKGGGGSGGGGSGGGGSQVQLQESGPGLVKPSQTLSLTCTVSGYSITSDYTWNWIRQPPGNGLEWIGYITYSGSTSYNPSLKSRVLISVDTSKNQVSLKLSSVTAADTAVYYCARLGRRYTMDYWGQGTTVTVSSTREQKLISEEDLAKPTTTPAPRPPTPAPTIASQPLSLRPEACRPAAGGAVHTRGLDFACDIYIWAPLAGTCGVLLLSLVITLYCKRGRKKLLYIFKQPFMRPVQTTQEEDGCSCRFPEEEEGGCELRVKFSRSADAPAYQQGQNQLYNELNLGRREEYDVLDKRRGRDPEMGGKPRRKNPQEGLYNELQKDKMAEAYSEIGMKGERRRGKGHDGLYQGLSTATKDTYDALHMQALPPRSSGSGEGRGSLLTCGDVEENPGPHMTEYKPTVRLATRDDVPRAVRTLAAAFADYPATRHTVDPDRHIERVTELQELFLTRVGLDIGKVWVADDGAAVAVWTTPESVEAGAVFAEIGPRMAELSGSRLAAQQQMEGLLAPHRPKEPAWFLATVGVSPDHQGKGLGSAVVLPGVEAAERAGVPAFLETSAPRNLPFYERLGFTVTADVEVPEGPRTWCMTRKPGA	–	EGFP expression (human MPL [1]): increase in EGFP expression
IgSP-[hTRAC-opt2]: codon optimized TCRα constant chain with signal peptide (protein) MDWIWRILFLVGAATGAHSFEGGTRFEGGLEIQNPDPAVYQLRDSKSSDKSVCLFTDFDSQTNVSQSKDSDVYITDKTVLDMRSMDFKSNSAVAWSNKSDFACANAFNNSIIPEDTFFPSPESSCDVKLVEKSFETDTNLNFQNLSVIGFRILLLKVAGFNLLMTLRLWSS	increased expression of TFP on the cell surface and induction of GFP expression and IL2 secretion	–
IgSP-[hTRBC-opt2]: codon optimized TCRβ constant chain with signal peptide (protein) MDWIWRILFLVGAATGAHSFEGGTREDLKNVFPPEVAVFEPSEAEISHTQKATLVCLATGFYPDHVELSWWVNGKEVHSGVSTDPQPLKEQPALNDSRYCLSSRLRVSATFWQNPRNHFRCQVQFYGLSENDEWTQDRAKPVTQIVSAEAWGRADCGFTSESYQQGVLSATILYEILLGKATLYAVLVSALVLMAMVKRKDSRG	increased expression of TFP on the cell surface and induction of GFP expression and IL2 secretion	–
